Legend:
Assay in all cases: holdup assay
Design in all cases: key: below the threshold = too weak to quantify, mostly under pKd 3.1 to 4
[1] = molecular target: T1, MAGI2_1, Q86UL8; settings: plain residues with an end cap or a label only (N-terminal biotin on a linker: ttds)
T1 sequence (Q86UL8 12-111, limits assumed, looked up): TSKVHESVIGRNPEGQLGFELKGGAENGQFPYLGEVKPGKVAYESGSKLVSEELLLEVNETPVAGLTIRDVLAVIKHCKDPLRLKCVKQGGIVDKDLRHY

[2] = molecular target: T2, SYNJ2BP, P57105
T2 sequence (P57105 8-110, limits assumed, looked up): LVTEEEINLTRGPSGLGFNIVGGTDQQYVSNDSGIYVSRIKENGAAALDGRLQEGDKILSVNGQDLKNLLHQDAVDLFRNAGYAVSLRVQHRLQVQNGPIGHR

[3] = molecular target: MAGIX, Q9H6Y5; settings: plain residues with an end cap or a label only (N-terminal biotin on a linker: ttds)
MAGIX, Q9H6Y5, sequence (Q9H6Y5 118-211): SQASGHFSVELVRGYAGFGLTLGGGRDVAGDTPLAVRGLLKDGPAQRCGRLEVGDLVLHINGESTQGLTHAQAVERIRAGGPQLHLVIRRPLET

[4] = molecular target: PDZRN4_2, Q6ZMN7; settings: plain residues with an end cap or a label only (N-terminal biotin on a linker: ttds)
PDZRN4_2, Q6ZMN7, sequence (Q6ZMN7 389-498): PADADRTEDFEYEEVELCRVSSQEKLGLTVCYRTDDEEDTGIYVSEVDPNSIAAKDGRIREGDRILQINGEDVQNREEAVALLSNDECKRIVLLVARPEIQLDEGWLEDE

[5] = molecular target: T3, PDZD2_6, O15018; settings: plain residues with an end cap or a label only (N-terminal biotin on a linker: ttds)
T3 sequence (O15018 2745-2839, limits assumed, looked up): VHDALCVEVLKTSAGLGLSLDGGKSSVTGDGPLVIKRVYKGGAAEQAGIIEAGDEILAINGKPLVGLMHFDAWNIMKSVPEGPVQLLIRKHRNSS

[6] = molecular target: RIMS1, Q86UR5; settings: plain residues with an end cap or a label only (N-terminal biotin on a linker: ttds)
RIMS1, Q86UR5, sequence (Q86UR5 584-692): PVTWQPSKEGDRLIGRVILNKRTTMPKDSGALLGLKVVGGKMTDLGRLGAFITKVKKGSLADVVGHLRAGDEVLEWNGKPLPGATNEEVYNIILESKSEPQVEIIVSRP

[7] = molecular target: T4, PDZD7_1, Q9H5P4; settings: plain residues with an end cap or a label only (N-terminal biotin on a linker: ttds)
T4 sequence (Q9H5P4 81-178, limits assumed, looked up): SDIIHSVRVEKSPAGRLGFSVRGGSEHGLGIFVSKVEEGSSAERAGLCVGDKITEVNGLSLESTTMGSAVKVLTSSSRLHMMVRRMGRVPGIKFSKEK

[8] = molecular target: T5, PDZD4, Q76G19; settings: plain residues with an end cap or a label only (N-terminal biotin on a linker: ttds)
T5 sequence (Q76G19 125-224, limits assumed, looked up): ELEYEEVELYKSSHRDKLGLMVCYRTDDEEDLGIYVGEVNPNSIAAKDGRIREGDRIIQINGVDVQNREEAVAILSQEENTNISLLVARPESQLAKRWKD

[9] = molecular target: T6, CNKSR1, Q969H4; settings: plain residues with an end cap or a label only (N-terminal biotin on a linker: ttds)
T6 sequence (Q969H4 191-295, limits assumed, looked up): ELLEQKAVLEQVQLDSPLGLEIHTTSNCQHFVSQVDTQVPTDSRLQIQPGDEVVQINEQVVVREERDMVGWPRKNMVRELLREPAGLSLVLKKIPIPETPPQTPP

[10] = molecular target: T7, TJP3_2, O95049; settings: plain residues with an end cap or a label only (N-terminal biotin on a linker: ttds)
T7 sequence (O95049 190-282, limits assumed, looked up): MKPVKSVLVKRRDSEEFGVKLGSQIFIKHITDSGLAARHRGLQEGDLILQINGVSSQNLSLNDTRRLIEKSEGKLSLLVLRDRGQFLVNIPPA

[11] = molecular target: T8, PDZRN3_2, Q9UPQ7; settings: plain residues with an end cap or a label only (N-terminal biotin on a linker: ttds)
T8 sequence (Q9UPQ7 414-513, limits assumed, looked up): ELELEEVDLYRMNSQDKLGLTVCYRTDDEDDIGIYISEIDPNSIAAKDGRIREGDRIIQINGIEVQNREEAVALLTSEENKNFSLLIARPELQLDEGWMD

[12] = molecular target: NHERF4_3, Q86UT5; settings: plain residues with an end cap or a label only (N-terminal biotin on a linker: ttds)
NHERF4_3, Q86UT5, sequence (Q86UT5 325-412): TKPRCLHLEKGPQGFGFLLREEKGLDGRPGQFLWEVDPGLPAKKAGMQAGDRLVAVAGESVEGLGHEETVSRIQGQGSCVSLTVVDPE

[13] = molecular target: T9, TJP3_1, O95049; settings: plain residues with an end cap or a label only (N-terminal biotin on a linker: ttds)
T9 sequence (O95049 6-103, limits assumed, looked up): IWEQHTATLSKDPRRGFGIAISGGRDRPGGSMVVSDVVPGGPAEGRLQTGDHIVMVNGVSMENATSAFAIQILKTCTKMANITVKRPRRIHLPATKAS

[14] = molecular target: T10, NHERF1_1, O14745; settings: plain residues with an end cap or a label only (N-terminal biotin on a linker: ttds)
T10 sequence (O14745 9-104, limits assumed, looked up): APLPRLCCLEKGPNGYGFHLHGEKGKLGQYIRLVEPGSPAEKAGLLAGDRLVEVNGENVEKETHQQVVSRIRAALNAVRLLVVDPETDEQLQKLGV

[15] = molecular target: SDCBP_1, O00560; settings: plain residues with an end cap or a label only (N-terminal biotin on a linker: ttds)
SDCBP_1, O00560, sequence (O00560 111-198): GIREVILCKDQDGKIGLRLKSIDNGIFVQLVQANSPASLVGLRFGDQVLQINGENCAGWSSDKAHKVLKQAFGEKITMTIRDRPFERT

[16] = molecular target: T11, APBA3_2, O96018; settings: plain residues with an end cap or a label only (N-terminal biotin on a linker: ttds)
T11 sequence (O96018 480-570, limits assumed, looked up): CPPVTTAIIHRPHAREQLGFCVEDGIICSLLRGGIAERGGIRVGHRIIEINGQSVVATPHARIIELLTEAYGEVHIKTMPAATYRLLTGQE

[17] = molecular target: T12, SHROOM3, Q8TF72; settings: plain residues with an end cap or a label only (N-terminal biotin on a linker: ttds)
T12 sequence (Q8TF72 20-120, limits assumed, looked up): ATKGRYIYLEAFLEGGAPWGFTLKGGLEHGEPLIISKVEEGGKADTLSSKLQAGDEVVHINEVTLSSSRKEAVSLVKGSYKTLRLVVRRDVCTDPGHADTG

[18] = molecular target: T13, PDZD2_1, O15018; settings: plain residues with an end cap or a label only (N-terminal biotin on a linker: ttds)
T13 sequence (O15018 80-192, limits assumed, looked up): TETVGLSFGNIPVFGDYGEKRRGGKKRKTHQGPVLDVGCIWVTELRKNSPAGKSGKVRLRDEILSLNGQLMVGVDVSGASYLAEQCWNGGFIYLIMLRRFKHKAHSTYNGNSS

[19] = molecular target: TJP1_1, Q07157; settings: plain residues with an end cap or a label only (N-terminal biotin on a linker: ttds)
TJP1_1, Q07157, sequence (Q07157 18-120): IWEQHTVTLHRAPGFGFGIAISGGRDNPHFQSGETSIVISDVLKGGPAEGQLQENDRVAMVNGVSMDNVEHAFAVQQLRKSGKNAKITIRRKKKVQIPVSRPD

[20] = molecular target: T14, PDZD2_5, O15018; settings: plain residues with an end cap or a label only (N-terminal biotin on a linker: ttds)
T14 sequence (O15018 2617-2716, limits assumed, looked up): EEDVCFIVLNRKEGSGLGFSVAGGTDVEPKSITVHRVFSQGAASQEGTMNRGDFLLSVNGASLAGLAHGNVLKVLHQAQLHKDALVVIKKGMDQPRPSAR

[21] = molecular target: T15, MPDZ_11, O75970; settings: plain residues with an end cap or a label only (N-terminal biotin on a linker: ttds)
T15 sequence (O75970 1720-1817, limits assumed, looked up): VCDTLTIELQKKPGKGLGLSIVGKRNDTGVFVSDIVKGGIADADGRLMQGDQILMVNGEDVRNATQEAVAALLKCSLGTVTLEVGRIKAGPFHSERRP

[22] = plain residues with an end cap or a label only (N-terminal biotin on a linker: ttds)
[23] = plain residues with an end cap or a label only (N-terminal biotin on a linker: gsgsgs; C-terminal amide)
[24] = plain residues with an end cap or a label only (N-terminal biotin on a linker: ahx)

## QRQARSETLV [HPV59-E6, Q81964]
[1]
  pKd: below the threshold
[2]; [22]
  pKd: 4.81
[3]
  pKd: below the threshold
[4]
  pKd: below the threshold
[5]
  pKd: below the threshold
[6]
  pKd: below the threshold
[7]
  pKd: below the threshold
[8]
  pKd: below the threshold
[9]
  pKd: below the threshold
[10]
  pKd: below the threshold
[11]
  pKd: below the threshold
[12]
  pKd: 4.28
[13]
  pKd: below the threshold
[14]
  pKd: below the threshold
[15]
  pKd: below the threshold
[16]
  pKd: below the threshold
[17]
  pKd: below the threshold
[18]
  pKd: below the threshold
[19]
  pKd: below the threshold
[20]
  pKd: below the threshold
[21]
  pKd: below the threshold

## VSVDDVRSTSQGLSSY [DFNB31_int, Q9P202]
[2]; [23]
  pKd: below the threshold

## ESLLLGPSNF [SHROOM4, Q9ULL8]
[2]; [24]
  pKd: below the threshold

## PSASCAVTAA [PDLIM4, P50479;P50479-2]
[2]; [24]
  pKd: below the threshold

## RAVEEEESRF [PSCDBP, O60759]
[2]; [24]
  pKd: below the threshold

## DKDPHSETAL [TMIGD1, Q6UXZ0]
[2]; [22]
  pKd: 4.42

## FHPLGADSQV [SLC2A1, P11166]
[2]; [22]
  pKd: 4.46

## EMDRRPATVV [PLCB4, Q15147]
[2]; [22]
  pKd: 3.7

## PLSPEQPTKL [TRIM50, Q86XT4]
[2]; plain residues with an end cap or a label only (N-terminal biotin on a linker: ado-ado)
  pKd: below the threshold

## GYDWGPATDL [TJP3, O95049]
[2]; [24]
  pKd: below the threshold

## EVVHTPETSV [SLC16A3, O15427]
[2]; [22]
  pKd: 4.78

## HNAFLSVTTV [PDZRN4, Q6ZMN7]
[2]; [24]
  pKd: below the threshold

## RLQRRRETQV [HPV18-E6, P06463]
[1]
  pKd: below the threshold
[2]; [22]
  pKd: 5.35
[3]
  pKd: below the threshold
[4]
  pKd: below the threshold
[5]
  pKd: below the threshold
[6]
  pKd: below the threshold
[7]
  pKd: below the threshold
[8]
  pKd: below the threshold
[9]
  pKd: below the threshold
[10]
  pKd: below the threshold
[12]
  pKd: below the threshold
[13]
  pKd: below the threshold
[14]
  pKd: below the threshold
[15]
  pKd: below the threshold
[16]
  pKd: below the threshold
[17]
  pKd: below the threshold
[18]
  pKd: below the threshold
[19]
  pKd: below the threshold
[20]
  pKd: below the threshold
[21]
  pKd: below the threshold

## KKYVDAETSL [SLC4A7, Q9Y6M7]
[2]; [22]
  pKd: 4.28

## SKPTRRETEV [HPV35-E6, P27228]
[2]; [22]
  pKd: 5.69
[3]
  pKd: 3.56
[4]
  pKd: below the threshold
[5]
  pKd: below the threshold
[6]
  pKd: below the threshold
[7]
  pKd: below the threshold
[8]
  pKd: 3.55
[11]
  pKd: 3.57
[12]
  pKd: 3.78
[13]
  pKd: below the threshold
[14]
  pKd: below the threshold
[15]
  pKd: below the threshold
[16]
  pKd: below the threshold
[17]
  pKd: below the threshold
[18]
  pKd: below the threshold
[19]
  pKd: below the threshold
[20]
  pKd: 3.77
[21]
  pKd: below the threshold

## PRVKPQRSKV [PPP1R13L, Q8WUF5]
[2]; [22]
  pKd: below the threshold

## YGIVQETTFDLGGDIH [MLLT4_int, P55196]
[2]; [23]
  pKd: below the threshold

## TVICWPGSLV [LNX2, Q8N448]
[2]; [24]
  pKd: 5.53

## VDFPPKESSL [ACVR2A, P27037]
[2]; [22]
  pKd: 4.53

## RRRKRKRTYL [HPV49-L2, P36762]
[2]; [24]
  pKd: below the threshold

## SDSSGQEYSL [KCTD3, Q9Y597]
[2]; [24]
  pKd: below the threshold

## PVRVCEETSL [OTULIN, Q96BN8]
[2]; [22]
  pKd: 4.74

## NRKREIFSNF [NHERF2, Q15599]
[2]; [24]
  pKd: below the threshold
